Data from article PMC4480679 (Biochemistry, 2015).

Target: T1, PhnI-his (E. coli, UniProt P16687 1-354)
T1 sequence (looked up): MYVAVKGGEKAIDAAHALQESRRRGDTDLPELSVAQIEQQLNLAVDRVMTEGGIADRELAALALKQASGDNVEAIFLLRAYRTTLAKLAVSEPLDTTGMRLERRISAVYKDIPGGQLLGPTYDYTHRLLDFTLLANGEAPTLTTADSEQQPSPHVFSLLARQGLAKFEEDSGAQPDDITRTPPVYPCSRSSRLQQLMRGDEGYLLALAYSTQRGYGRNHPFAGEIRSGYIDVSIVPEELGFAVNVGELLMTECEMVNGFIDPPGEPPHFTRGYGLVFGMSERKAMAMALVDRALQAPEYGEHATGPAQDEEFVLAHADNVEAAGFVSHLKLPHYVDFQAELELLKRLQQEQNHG
Assay: N-terminal Edman sequencing of the purified complex

B1: PhnG (natural protein, E. coli, UniProt P16685 1-150, looked up)
chain: MHADTATRQHWMSVLAHSQPAELAARLNALNITADYEVIRAAETGLVQIQARMGGTGERFFAGDATLTRAAVRLTDGTLGYSWVQGRDKQHAERCALIDALMQQSRHFQNLSETLIAPLDADRMARIAARQAEVNASRVDFFTMVRGDNA
- stoichiometry N: 0.9 ± 0.1 PhnG per PhnI
